# Data as given in US20200199241A1 (Chugai, published 2020).
# Substitutions are numbered along the chain they refer to.
# B1: IgG1-F1207 (antibody)
# heavy: QVQLQESGPGLVKPSETLSLTCAVSGHSISHDHAWSWVRQPPGEGLEWIGFISYSGITNYNPSLQGRVTISRDNSKNTLYLQMNSLRAEDTAVYYCARSLARTTAMDYWGEGTLVTVSSASTKGPSVFPLAPSSKSTSGGTAALGCLVKDYFPEPVTVSWNSGALTSGVHTFPAVLQSSGLYSLSSVVTVPSSSLGTQTYICNVNHKPSNTKVDKKVEPKSCDKTHTCPPCPAPELLGGPSVFLFPPKPKDTLMISRTPEVTCVVVDVSHEDPEVKFNWYVDGVEVHNAKTKPREEQYNSTYRVVSVLTVLHQDWLNGKEYKCKVSNKALPAPEEKTISKAKGQPREPQVYTLPPSRDELTKNQVSLTCLVKGFYPSDIAVEWESNGQPENNYKTTPPVLDSDGSFFLYSKLTVDKSRWQQGNVFSCSVLHEALHSHYTQKSLSLSP
# light: not shown
# notes: EU numbering; copies: 2 + 2
# B2: IgG1-F1208 (antibody)
# heavy: B1 heavy with L253A, M254Y, E334I, L430M, S436Y, Y438V
# light: not shown
# notes: EU numbering; copies: 2 + 2
# B3: IgG1-F1216 (antibody)
# heavy: B1 heavy with L253S, M254Y, E334I, L430M, S436Y, Y438V
# light: not shown
# notes: EU numbering; copies: 2 + 2
# B4: IgG1-F1217 (antibody)
# heavy: B1 heavy with L253T, M254Y, E334I, L430M, S436Y, Y438V
# light: not shown
# notes: EU numbering; copies: 2 + 2
# B5: IgG1-F1218 (antibody)
# heavy: B1 heavy with L253V, M254Y, E334I, L430M, S436Y, Y438V
# light: not shown
# notes: EU numbering; copies: 2 + 2
# B6: IgG1-F1229 (antibody)
# heavy: B1 heavy with M254Y, I255V, E334I, L430M, S436Y, Y438V
# light: not shown
# notes: EU numbering; copies: 2 + 2
# B7: IgG1-F1230 (antibody)
# heavy: B1 heavy with M254Y, E334I, L430M, S436Y, Y438V, Q440R, S442D
# light: not shown
# notes: EU numbering; copies: 2 + 2
# B8: IgG1-F1231 (antibody)
# heavy: B1 heavy with M254Y, E334I, L430M, S436Y, Y438V, Q440K, S442E
# light: not shown
# notes: EU numbering; copies: 2 + 2
# B9: IgG1-F1232 (antibody)
# heavy: B1 heavy with M254Y, E334I, L430M, S436Y, Y438V, Q440K, S442D
# light: not shown
# notes: EU numbering; copies: 2 + 2
# B10: IgG1-F1243 (antibody)
# heavy: B1 heavy with L237R, S241K, M254Y, S256T, E334I, L430M, S436Y, Y438V, Q440R, S442E
# light: not shown
# notes: EU numbering; copies: 2 + 2
# B11: IgG1-F1244 (antibody)
# heavy: B1 heavy with L237R, S241K, M254Y, T258E, E334I, L430M, S436Y, Y438V, Q440R, S442E
# light: not shown
# notes: EU numbering; copies: 2 + 2
# B12: IgG1-F1245 (antibody)
# heavy: QVQLQESGPGLVKPSETLSLTCAVSGHSISHDHAWSWVRQPPGEGLEWIGFISYSGITNYNPSLQGRVTISRDNSKNTLYLQMNSLRAEDTAVYYCARSLARTTAMDYWGEGTLVTVSSASTKGPSVFPLAPSSKSTSGGTAALGCLVKDYFPEPVTVSWNSGALTSGVHTFPAVLQSSGLYSLSSVVTVPSSSLGTQTYICNVNHKPSNTKVDKKVEPKSCDKTHTCPPCPAPELRGGPKVFLFPPKPKDTLYITREPEVTCVVVDVSHEDPEVKFNWYVDGVEVHNAKTKPREEQYNSTYRVVSVLTVLHQDWLNGKEYKCKVSNKALPAPIEKTISKAKGQPREPQVYTLPPSRDELTKNQVSLTCLVKGFYPSDIAVEWESNGQPENNYKTTPPVLDSDGSFFLYSKLTVDKSRWQQGNVFSCSVMHEALHYHVTRKELSLSP
# light: not shown
# notes: EU numbering; copies: 2 + 2
# B13: IgG1-F1246 (antibody)
# heavy: B12 heavy with T252V, E258T
# light: not shown
# notes: EU numbering; copies: 2 + 2
# B14: IgG1-F1247 (antibody)
# heavy: B12 heavy with T252V, T256S
# light: not shown
# notes: EU numbering; copies: 2 + 2
# B15: IgG1-F1248 (antibody)
# heavy: B12 heavy with T252V
# light: not shown
# notes: EU numbering; copies: 2 + 2
# B16: IgG1-F1249 (antibody)
# heavy: B12 heavy with T256S, E258Q
# light: not shown
# notes: EU numbering; copies: 2 + 2
# B17: IgG1-F1250 (antibody)
# heavy: B12 heavy with E258Q
# light: not shown
# notes: EU numbering; copies: 2 + 2
# B18: IgG1-F1251 (antibody)
# heavy: B12 heavy with T252V, T256S, E258Q
# light: not shown
# notes: EU numbering; copies: 2 + 2
# B19: IgG1-F1252 (antibody)
# heavy: B12 heavy with T252V, E258Q
# light: not shown
# notes: EU numbering; copies: 2 + 2
# B20: IgG1-F1253 (antibody)
# heavy: B12 heavy with T256S, E258T, T309A
# light: not shown
# notes: EU numbering; copies: 2 + 2
# B21: IgG1-F1255 (antibody)
# heavy: B12 heavy with T256S, E258T, Q313A
# light: not shown
# notes: EU numbering; copies: 2 + 2
# B22: IgG1-F1256 (antibody)
# heavy: B12 heavy with T256S, E258T, Q313H
# light: not shown
# notes: EU numbering; copies: 2 + 2
# B23: IgG1-F1257 (antibody)
# heavy: B12 heavy with T256S, E258T, T309A, Q313A
# light: not shown
# notes: EU numbering; copies: 2 + 2
# B24: IgG1-F1258 (antibody)
# heavy: B12 heavy with T256S, E258T, T309A, Q313H
# light: not shown
# notes: EU numbering; copies: 2 + 2
# B25: IgG1-F1259 (antibody)
# heavy: B12 heavy with T256S, E258T, T309Q, Q313A
# light: not shown
# notes: EU numbering; copies: 2 + 2
# B26: IgG1-F1260 (antibody)
# heavy: B12 heavy with T256S, E258T, T309Q, Q313H
# light: not shown
# notes: EU numbering; copies: 2 + 2
# B27: IgG1-F1261 (antibody)
# heavy: B12 heavy with T256S, E258T, E442D
# light: not shown
# notes: EU numbering; copies: 2 + 2
# B28: IgG1-F1262 (antibody)
# heavy: B12 heavy with T256S, E258T, R440K
# light: not shown
# notes: EU numbering; copies: 2 + 2
# B29: IgG1-F1263 (antibody)
# heavy: B12 heavy with T256S, E258T, R440K, E442D
# light: not shown
# notes: EU numbering; copies: 2 + 2
# B30: IgG1-F1264 (antibody)
# heavy: B12 heavy with T256S, E258A
# light: not shown
# notes: EU numbering; copies: 2 + 2
# Target: T1, soluble human FcRn complexed with β2-microglobulin (human, UniProt P61769 21-119, limits assumed)
# T1 construct: also called hFcRn
# Assay: Biacore SPR, pH 7.0;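 further: test antibodies captured on a Protein L chip with human FcRn flowed over as analyte, KD obtained as the ratio of dissociation to association rate constants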
row,Kd [nM],Binder
1,1110,B1
2,571,B2
3,1160,B3
4,1140,B4
5,251,B5
6,2810,B6
7,112,B7
8,97.3,B8
9,97.9,B9
10,125,B10
11,102,B11
12,82,B12
13,173,B13
14,145,B14
15,120,B15
16,206,B16
17,166,B17
18,277,B18
19,233,B19
20,112,B20
21,111,B21
22,156,B22
23,78.1,B23
24,105,B24
25,44.6,B25
26,65.3,B26
27,135,B27
28,126,B28
29,124,B29
30,127,B30
